The supplement of paper PMC7877785
± gives the uncertainty stated by the source.

Assay: self-splicing fitness, log relative to wild type (ln ratio); higher = more splicing; Tetrahymena group I intron in knt gene, E. coli kanamycin selection, DiMSum; sequences stand for … in CUCUCU…GGAGGGAAAAGUUAUCAGGCAUGCACCUGGUAGCUAGUCUUUAAACCAAUAGAUUGCAUCGGUUUAAAAGGCAAGACCGUCAAAUUGCGGGAAAGGGGUCAACAGCCGUUCAGUACCAAGUCUCAGGGGAAACUUUGAGAUGGCCUUGCAAAGGGUAUGGUAAUAAGCUGACGGACAUGGUCCUAACCACGCAGCCAAGUCCUAAGUCAACAGAUCUUCUGUUGAUAUGGAUGCAGUUCACAGACUAAAUGUCGGUCGGGGAAGAUGUAUUCUUCUCAUAAGAUAUAGUCGGACCUCUCCUUAAUGGGAGCUAGCGGAUGAAGUGAUGCAACACUGGAGCCGCUGGGAACUAAUUUGUAUGCGAAAGUAUAUUGAUUAGUUUUGGAGUACUCGUGGUCG
In short: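 Colonies from six replicate transformations of E. coli BL21(DE3) were pooled and amplicon-sequenced on an Illumina HiSeq 2500. The library placed an intron with all eight P1ex-region nucleotides randomised inside the knt kanamycin-resistance gene on pET-22b(+), and cells grew overnight at 37°C or 30°C on LB agar with or without 25 μg/mL kanamycin (plus 100 μg/mL carbenicillin, 50 μM IPTG, 0.2% rhamnose). Fitness is the DiMSum error-weighted combination of wild-type-normalised replicate fold changes, kanamycin versus none.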

| Sequence | self-splicing fitness (ln) (30 °C) | self-splicing fitness (ln) (37 °C) |
| --- | --- | --- |
| AAGUAGCAAUAUUACGUGUC | -2.83 ± 0.27 | -2.4 ± 0.28 |
| AAUAAGCAAUAUUACGAAUG | -1.37 ± 0.13 | -0.759 ± 0.17 |
| AAUAAGCAAUAUUACGACCG | -0.621 ± 0.12 | 0.329 ± 0.16 |
| AAUAAGCAAUAUUACGAGAG | -2.47 ± 0.14 | -2.01 ± 0.2 |
| AAUAAGCAAUAUUACGAGGC | – | -2.31 ± 0.32 |
| AAUAAGCAAUAUUACGAUGC | -2.4 ± 0.13 | -1.45 ± 0.15 |
| AAUAAGCAAUAUUACGAUUC | -2.44 ± 0.12 | -1.13 ± 0.15 |
| AAUAAGCAAUAUUACGCAAU | -1.59 ± 0.075 | -1.22 ± 0.082 |
| AAUAAGCAAUAUUACGCAUA | -1.59 ± 0.16 | -0.617 ± 0.16 |
| AAUAAGCAAUAUUACGCCCA | 0.0107 ± 0.1 | -0.447 ± 0.15 |
| AAUAAGCAAUAUUACGCUCC | -1.46 ± 0.23 | -0.799 ± 0.24 |
| AAUAAGCAAUAUUACGGAAA | -1.5 ± 0.33 | -2.03 ± 0.39 |
| AAUAAGCAAUAUUACGGAGU | -3.06 ± 0.25 | -2.13 ± 0.32 |
| AAUAAGCAAUAUUACGGGCG | -1.29 ± 0.086 | -0.752 ± 0.095 |
| AAUAAGCAAUAUUACGGUAA | -1.73 ± 0.16 | -1.03 ± 0.11 |
| AAUAAGCAAUAUUACGUACU | 0.573 ± 0.1 | -0.654 ± 0.095 |
| AAUAAGCAAUAUUACGUAUU | -3.58 ± 0.17 | -2.22 ± 0.15 |
| AAUAAGCAAUAUUACGUCCA | -0.808 ± 0.13 | -0.899 ± 0.19 |
| AAUAAGCAAUAUUACGUCCG | -1.15 ± 0.11 | -0.82 ± 0.15 |
| AAUAAGCAAUAUUACGUGCC | – | 0.782 ± 0.26 |
| AAUAAGCAAUAUUACGUGCG | -1.1 ± 0.065 | -0.488 ± 0.083 |
| AAUAAGCAAUAUUACGUGUU | -3.01 ± 0.097 | -2.58 ± 0.13 |
| AAUCAGCAAUAUUACGACAG | -1.31 ± 0.083 | -0.761 ± 0.1 |
| AAUCAGCAAUAUUACGACGA | -0.461 ± 0.082 | 0.386 ± 0.1 |

| Sequence | self-splicing fitness (ln) (30 °C) | self-splicing fitness (ln) (37 °C) |
| --- | --- | --- |
| AAUCAGCAAUAUUACGAGAA | -1.61 ± 0.26 | -1.61 ± 0.2 |
| AAUCAGCAAUAUUACGAUCC | 0.138 ± 0.13 | -0.291 ± 0.17 |
| AAUCAGCAAUAUUACGAUGA | 0.103 ± 0.059 | 0.0645 ± 0.083 |
| AAUCAGCAAUAUUACGCCAU | -2.35 ± 0.19 | -1.76 ± 0.14 |
| AAUCAGCAAUAUUACGCCGA | -1.17 ± 0.09 | -0.332 ± 0.11 |
| AAUCAGCAAUAUUACGCGUU | -0.956 ± 0.057 | -0.765 ± 0.076 |
| AAUCAGCAAUAUUACGGAAA | -1.19 ± 0.099 | 0.0734 ± 0.12 |
| AAUCAGCAAUAUUACGGAUU | -2.89 ± 0.15 | -2.74 ± 0.16 |
| AAUCAGCAAUAUUACGGCGU | 0.47 ± 0.068 | 0.7 ± 0.076 |
| AAUCAGCAAUAUUACGGGGA | -1.82 ± 0.1 | -0.723 ± 0.1 |
| AAUCAGCAAUAUUACGGGGG | -1.11 ± 0.1 | -1.66 ± 0.13 |
| AAUCAGCAAUAUUACGGUAA | 0.0235 ± 0.065 | 0.0455 ± 0.063 |
| AAUCAGCAAUAUUACGGUAG | -1.83 ± 0.092 | -0.774 ± 0.097 |
| AAUCAGCAAUAUUACGUCAU | 0.166 ± 0.064 | 0.337 ± 0.077 |
| AAUCAGCAAUAUUACGUCCU | 0.497 ± 0.09 | 0.632 ± 0.11 |
| AAUCAGCAAUAUUACGUUCC | -2.26 ± 0.24 | -0.62 ± 0.22 |
| AAUGAGCAAUAUUACGAUAG | -3.68 ± 0.27 | -2.04 ± 0.34 |
| AAUGAGCAAUAUUACGAUAU | -3.25 ± 0.25 | -0.861 ± 0.22 |
| AAUGAGCAAUAUUACGCACG | -3.21 ± 0.36 | – |
| AAUGAGCAAUAUUACGCUAC | -3.12 ± 0.27 | -2.84 ± 0.34 |
| AAUGAGCAAUAUUACGGAAG | -3.49 ± 0.3 | -2.63 ± 0.23 |
| AAUGAGCAAUAUUACGGACU | -1.59 ± 0.13 | -2.04 ± 0.19 |
| AAUGAGCAAUAUUACGGAGA | -2.59 ± 0.4 | -2.51 ± 0.34 |
| AAUGAGCAAUAUUACGGAGG | -2.69 ± 0.33 | -2.45 ± 0.38 |

| Sequence | self-splicing fitness (ln) (30 °C) | self-splicing fitness (ln) (37 °C) |
| --- | --- | --- |
| AAUGAGCAAUAUUACGGCUA | -2.14 ± 0.24 | -0.372 ± 0.16 |
| AAUGAGCAAUAUUACGGCUG | -1.52 ± 0.096 | -1.47 ± 0.16 |
| AAUGAGCAAUAUUACGGGCA | -3.76 ± 0.42 | -1.24 ± 0.29 |
| AAUGAGCAAUAUUACGGGGU | -2.97 ± 0.18 | -2.29 ± 0.21 |
| AAUGAGCAAUAUUACGUAGA | -2.46 ± 0.24 | -2.56 ± 0.27 |
| AAUGAGCAAUAUUACGUAGG | -3.19 ± 0.15 | -2.6 ± 0.24 |
| AAUGAGCAAUAUUACGUCGA | -3.56 ± 0.21 | -2.84 ± 0.23 |
| AAUGAGCAAUAUUACGUUUG | -4.24 ± 0.2 | -2.33 ± 0.19 |
| AAUUAGCAAUAUUACGAACG | -0.548 ± 0.13 | -0.153 ± 0.19 |
| AAUUAGCAAUAUUACGACAU | -0.0913 ± 0.013 | -0.0165 ± 0.033 |
| AAUUAGCAAUAUUACGACUG | -1.11 ± 0.1 | -0.677 ± 0.11 |
| AAUUAGCAAUAUUACGAGAC | – | -2.39 ± 0.39 |
| AAUUAGCAAUAUUACGAUUA | -0.375 ± 0.15 | -0.559 ± 0.15 |
| AAUUAGCAAUAUUACGCAUG | -1.7 ± 0.15 | 0.109 ± 0.2 |
| AAUUAGCAAUAUUACGCAUU | -2.52 ± 0.17 | -2.69 ± 0.21 |
| AAUUAGCAAUAUUACGCCGC | -2.94 ± 0.36 | -1.66 ± 0.24 |
| AAUUAGCAAUAUUACGCGAG | -1.84 ± 0.12 | -0.918 ± 0.12 |
| AAUUAGCAAUAUUACGCGGA | -1.56 ± 0.16 | -1.3 ± 0.12 |
| AAUUAGCAAUAUUACGCGGG | -2.73 ± 0.15 | -0.941 ± 0.14 |
| AAUUAGCAAUAUUACGGAUC | -0.415 ± 0.11 | 0.186 ± 0.12 |
| AAUUAGCAAUAUUACGGUCU | -0.43 ± 0.085 | 0.202 ± 0.099 |
| AAUUAGCAAUAUUACGUAAU | -1.92 ± 0.12 | -0.218 ± 0.15 |
| AAUUAGCAAUAUUACGUAGU | -2.9 ± 0.16 | -0.462 ± 0.1 |
| AAUUAGCAAUAUUACGUCAC | -3.93 ± 0.36 | -2.41 ± 0.33 |

| Sequence | self-splicing fitness (ln) (30 °C) | self-splicing fitness (ln) (37 °C) |
| --- | --- | --- |
| AAUUAGCAAUAUUACGUCCU | -0.344 ± 0.11 | 0.561 ± 0.16 |
| AAUUAGCAAUAUUACGUUAG | -4.03 ± 0.28 | -3.13 ± 0.26 |
| AAUUAGCAAUAUUACGUUUU | -1.98 ± 0.13 | -1.21 ± 0.14 |
| ACAAAGCAAUAUUACGAACU | -0.4 ± 0.055 | 0.248 ± 0.075 |
| ACAAAGCAAUAUUACGACGU | 0.0672 ± 0.047 | 0.266 ± 0.06 |
| ACAAAGCAAUAUUACGAGCA | -1.56 ± 0.14 | -0.49 ± 0.12 |
| ACAAAGCAAUAUUACGAUGA | -0.411 ± 0.048 | -0.201 ± 0.058 |
| ACAAAGCAAUAUUACGAUUC | -1.92 ± 0.085 | -0.67 ± 0.1 |
| ACAAAGCAAUAUUACGCCAC | -3.01 ± 0.38 | – |
| ACAAAGCAAUAUUACGCCUU | -2.01 ± 0.075 | -0.625 ± 0.087 |
| ACAAAGCAAUAUUACGCGAA | -2.41 ± 0.096 | -1.13 ± 0.092 |
| ACAAAGCAAUAUUACGCGCG | -1.11 ± 0.078 | -0.453 ± 0.099 |
| ACAAAGCAAUAUUACGGAGG | -2.23 ± 0.078 | -2.17 ± 0.11 |
| ACAAAGCAAUAUUACGUAUG | -3.01 ± 0.12 | -2.13 ± 0.15 |
| ACAAAGCAAUAUUACGUCAC | -4.13 ± 0.18 | -2.53 ± 0.16 |
| ACAAAGCAAUAUUACGUCGC | -2.42 ± 0.11 | -2.23 ± 0.16 |
| ACAAAGCAAUAUUACGUCGG | -2.14 ± 0.11 | -0.989 ± 0.12 |
| ACAAAGCAAUAUUACGUCUA | -2.1 ± 0.083 | -0.824 ± 0.086 |
| ACAAAGCAAUAUUACGUGUU | -3.59 ± 0.17 | -2.61 ± 0.16 |
| ACAAAGCAAUAUUACGUUAC | -4.4 ± 0.22 | -2.42 ± 0.22 |
| ACACAGCAAUAUUACGACAC | -1.35 ± 0.081 | 0.0205 ± 0.11 |
| ACACAGCAAUAUUACGACCC | -0.35 ± 0.14 | -0.0588 ± 0.2 |
| ACACAGCAAUAUUACGAGAU | -3.79 ± 0.16 | -0.784 ± 0.11 |
| ACACAGCAAUAUUACGAGGA | -2.42 ± 0.2 | -1.66 ± 0.18 |
